One may read the half-life as the time in which the quantity being followed falls by half.

One data set addresses T1, DPP-IV (Sus scrofa, UniProt P22411).
T1 construct: purchased Sigma D-7052
Nature of the data set: In vitro measurement of DPP-IV activity (Gly-Pro-p-nitroanilide substrate, absorption at 385 nm). The class given is biochemical. To be noted: Tris buffer pH 8.0. As to the method: DPP-IV activity can be determined by measuring the increase in absorption at 385 nm using Gly-Pro-p-nitroanilide (Sigma G-0513) as DPP-IV substrate. A decrease in DPP-IV activity is a measure for the inhibition.
13.152 mg Gly-Pro-p-nitroanilide (substrate; Sigma G-0513) was dissolved in 1 ml Tris buffer, pH 8.0. DPP-IV (Sigma D-7052) was diluted with Tris buffer, pH 8.0 to 1.1 Unit/ml. The substrate was diluted 50-fold with Tris buffer, pH 8.0. The samples were prepared by diluting a protein hydrolysate to a 1 wt. % protein solution in Tris buffer, pH 8.0. The samples were then serially diluted to obtain a range of sample concentrations. 50 μl of the different serially diluted samples and 50 μl of the diluted substrate were then pipetted in wells of a microtiter plate with 96 wells. Subsequently, 100 μl of the diluted enzyme was pipetted in each well of a plate with 96 wells. Then the increase in absorption at 385 nm was determined and DPP-IV activities at different concentrations of a variety of protein hydrolysates were determined, from which the IC50 (i.e. the concentration of inhibitor (particular protein hydrolysate) that inhibits 50% of the DPP-IV activity) could be derived. […] The degree of hydrolysis was determined using the o-phtaldialdehyde method, which is well known in the art.

For data set [1] the following is noted: plasma; degradation by DPP-IV; cited from earlier work.
For data set [2], the system named is Bipro from Davisco Foods, USA (unhydrolysed, DH 0%).
Data set [3] has as its system Sodium caseinate from DMV International, NL (unhydrolysed, DH 0%).

T1 sequence (P22411 whole entry): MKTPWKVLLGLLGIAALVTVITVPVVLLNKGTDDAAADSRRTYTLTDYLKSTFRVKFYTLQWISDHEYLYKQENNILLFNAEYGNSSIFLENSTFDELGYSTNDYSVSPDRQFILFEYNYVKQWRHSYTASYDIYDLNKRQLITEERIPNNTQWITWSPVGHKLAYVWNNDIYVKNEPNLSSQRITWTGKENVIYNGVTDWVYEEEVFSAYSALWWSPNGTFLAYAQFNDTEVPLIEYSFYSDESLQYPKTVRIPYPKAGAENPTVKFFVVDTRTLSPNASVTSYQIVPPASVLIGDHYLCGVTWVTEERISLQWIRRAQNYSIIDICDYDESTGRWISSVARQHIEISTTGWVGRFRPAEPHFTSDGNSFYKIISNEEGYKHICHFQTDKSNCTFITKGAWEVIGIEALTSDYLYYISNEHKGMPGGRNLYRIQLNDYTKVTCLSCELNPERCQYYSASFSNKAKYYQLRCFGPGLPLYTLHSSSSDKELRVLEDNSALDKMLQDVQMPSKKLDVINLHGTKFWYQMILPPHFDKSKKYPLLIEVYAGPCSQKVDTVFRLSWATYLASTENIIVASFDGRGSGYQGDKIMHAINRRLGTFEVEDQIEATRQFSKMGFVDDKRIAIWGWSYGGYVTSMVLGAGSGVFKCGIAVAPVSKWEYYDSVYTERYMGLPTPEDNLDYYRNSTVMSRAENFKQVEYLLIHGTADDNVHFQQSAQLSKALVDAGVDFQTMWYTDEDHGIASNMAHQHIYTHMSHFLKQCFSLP

In the case of Sodium caseinate, at DPP-IV, the “DPP-IV inhibition by unhydrolysed protein (control, DH 0%)” value was “did not inhibit the enzyme”.
Regarding “GLP-1: 30 amino acid incretin peptide, sequence HAEGTFTSDVSSYLEGQAAKEFIAWLVKGR (SEQ ID NO: 1)”, in data set [1], the half-life is 1 to 2 min.
Consider dipeptidyl peptidase IV (DPP-IV), for which the “DPP-IV activity (Gly-Pro-p-nitroanilide substrate, absorption at 385 nm)” value in data set [2] and in data set [3] was “unhydrolysed protein did not inhibit the enzyme” throughout.

The record behind these values is US8431531B2, “Methods for stimulating glucagon-like peptide-1(GLP-1) secretion and treatments comprising same” (Campina Nederland Holding B.V., priority 2005, dated 2013).
